Data from patent US20090143241A1 (PENN STATE RESEARCH FOUNDATION, published 2009).
Where no end group is shown, it is not given here.

Key:
[1] = target: T1, ClpXP protease (E. coli ClpX6 with ClpP14) (E. coli, UniProt P0A6H1 1-424; P0A6G7 15-207); assay: cell-based or functional assay
[2] = target: T1, ClpXP protease (E. coli ClpX6 with …); assay: kinetic assays with purified peptides and E. coli proteins (GFP-tag proteolysis by ClpXP with SspB); uncompetitive model
[3] = target: T1, ClpXP protease (E. coli ClpX6 with …); assay: continuous fluorimetric assay of GFP-tag proteolysis by ClpXP, no SspB
[4] = target: T1, ClpXP protease (E. coli ClpX6 with …); assay: continuous fluorimetric assay of GFP-tag proteolysis by ClpXP, with SspB
[5] = target: T1, ClpXP protease (E. coli ClpX6 with …); assay: GFP-tag proteolysis by ClpXP in the presence of SspB
[6] = target: T1, ClpXP protease (E. coli ClpX6 with …); assay: kinetic assays with purified peptides and E. coli proteins (GFP-tag proteolysis by ClpXP with SspB)
[7] = target: T1, ClpXP protease (E. coli ClpX6 with …); assay: GFP-tag proteolysis by ClpXP without SspB against with SspB

T1 sequence (P0A6H1 whole entry, chain 1 of 2): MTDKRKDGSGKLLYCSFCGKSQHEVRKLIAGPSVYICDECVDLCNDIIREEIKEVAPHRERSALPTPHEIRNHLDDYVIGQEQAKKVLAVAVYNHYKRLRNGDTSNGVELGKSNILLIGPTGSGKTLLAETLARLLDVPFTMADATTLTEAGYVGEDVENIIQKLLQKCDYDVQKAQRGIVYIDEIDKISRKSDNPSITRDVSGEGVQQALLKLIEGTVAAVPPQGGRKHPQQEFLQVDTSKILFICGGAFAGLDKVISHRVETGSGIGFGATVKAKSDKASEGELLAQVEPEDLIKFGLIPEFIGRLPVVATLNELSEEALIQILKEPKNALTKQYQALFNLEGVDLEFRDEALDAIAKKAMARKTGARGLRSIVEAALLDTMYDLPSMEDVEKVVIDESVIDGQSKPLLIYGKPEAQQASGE
T1 sequence (P0A6G7 15-207, chain 2 of 2): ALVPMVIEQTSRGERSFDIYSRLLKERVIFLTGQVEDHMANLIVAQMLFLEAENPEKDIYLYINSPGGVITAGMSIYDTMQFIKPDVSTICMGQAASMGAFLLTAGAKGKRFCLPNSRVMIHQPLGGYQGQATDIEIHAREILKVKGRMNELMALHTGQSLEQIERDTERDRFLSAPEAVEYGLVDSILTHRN

Binder: SGWYGRRH (head-to-tail cyclized (cyclic peptide), also called cyclic IXP1) [IXP1, cyclic SGWYGRRH peptide]
- half-life of λ O with ClpXP and 100 µM IXP1 [1]: 1.22 h
- Ki [2]: 136 µM

B1: ICP1, cyclic SGSKGVLPL peptide (peptide)
peptide: SGSKGVLPL
modifications: head-to-tail cyclized (cyclic peptide)
notes: Chemically synthesized linear, circularized and HPLC purified; also called IXP3
- Ki [3]: 28 µM
- Ki [4]: 25 µM

B2: linear XB peptide, CRGGRPALRVVK (peptide)
peptide: CRGGRPALRVVK
notes: The text calls XB the 11 C-terminal residues of E. coli SspB; also called linXB
- Ki [5]: 6.4 µM
- Ki [3]: > 1000 µM
- Ki [4]: 64 µM
- Ki [6]: 56 µM

Binder: CRGGRPALRVVK (also: cyclized in vitro, ring type not given here) [cycXB, cyclic XB peptide [CRGGRPALRVVK] (Table 4)]
- Ki [5]: 8.1 µM
- fold lower KI than the linear XB peptide [5]: 7 fold
- Ki [3]: 6 µM
- Ki [4]: 8 µM

B3: Con62, cyclic SGWPYKWM peptide (peptide)
peptide: SGWPYKWM
modifications: head-to-tail cyclized (cyclic peptide)
notes: Arbitrary cyclic peptide from the SGWX5 library, negative control; also called arbitrary cyclic peptide
- Ki [3]: > 1000 µM

Binder: SGWRVQGPL (head-to-tail cyclized (cyclic peptide), also called IXP4) [ICP2, cyclic SGWRVQGPL peptide]
- fold higher KI without SspB [7]: ≥ 10 fold
- Ki [3]: > 1000 µM
- Ki [4]: 21 µM

B4: cyclic XB, RGGRPALRVVK (Table 6) (peptide)
peptide: RGGRPALRVVK
modifications: also: cyclized, ring type not given here
notes: possibly the same preparation as m6; also called cyclic XB peptide
- fold lower KI than the linear XB peptide [5]: 7 fold
- Ki [6]: 8 µM
